Paper PMC5430663, “Distant Phe345 mutation compromises the stability and activity of Mycobacterium tuberculosis isocitrate lyase by modulating its structural flexibility” (Scientific Reports, 2017)

B1: Mycobacterium tuberculosis isocitrate lyase (MtbICL) (enzyme)
chain: MSVVGTPKSAEQIQQEWDTNPRWKDVTRTYSAEDVVALQGSVVEEHTLARRGAEVLWEQLHDLEWVNALGALTGNMAVQQVRAGLKAIYLSGWQVAGDANLSGHTYPDQSLYPANSVPQVVRRINNALQRADQIAKIEGDTSVENWLAPIVADGEAGFGGALNVYELQKALIAAGVAGSHWEDQLASEKKCGHLGGKVLIPTQQHIRTLTSARLAADVADVPTVVIARTDAEAATLITSDVDERDQPFITGERTREGFYRTKNGIEPCIARAKAYAPFADLIWMETGTPDLEAARQFSEAVKAEYPDQMLAYNCSPSFNWKKHLDDATIAKFQKELAAMGFKFQFITLAGFHALNYSMFDLAYGYAQNQMSAYVELQEREFAAEERGYTATKHQREVGAGYFDRIATTVDPNSSTTALTGSTEEGQFH
notes: Isocitrate lyase of Mycobacterium tuberculosis, full-length, 428 amino acids per monomer; also called native MtbICL; native protein
B2: MtbICL F345A mutant (MtbICL_(F345A)) (enzyme)
chain: MSVVGTPKSAEQIQQEWDTNPRWKDVTRTYSAEDVVALQGSVVEEHTLARRGAEVLWEQLHDLEWVNALGALTGNMAVQQVRAGLKAIYLSGWQVAGDANLSGHTYPDQSLYPANSVPQVVRRINNALQRADQIAKIEGDTSVENWLAPIVADGEAGFGGALNVYELQKALIAAGVAGSHWEDQLASEKKCGHLGGKVLIPTQQHIRTLTSARLAADVADVPTVVIARTDAEAATLITSDVDERDQPFITGERTREGFYRTKNGIEPCIARAKAYAPFADLIWMETGTPDLEAARQFSEAVKAEYPDQMLAYNCSPSFNWKKHLDDATIAKFQKELAAMGFKFQAITLAGFHALNYSMFDLAYGYAQNQMSAYVELQEREFAAEERGYTATKHQREVGAGYFDRIATTVDPNSSTTALTGSTEEGQFH
notes: A small fraction formed aggregate on SEC; also called mutant protein

Target: the molecule itself
Experiment: SEC; Superdex 200 10/300 GL on AKTA-FPLC, 50 mM phosphate buffer pH 8.0, 100 mM NaCl, 0.5 mL/min, 25 °C; mass read against standard markers (ferritin, catalase, aldolase, ovalbumin)

Protein	stoichiometry N
B1	4
B2	4
